In IntAct's records for PubMed 17632125:

B1: Ubiquitin carboxyl-terminal hydrolase 3 (Saccharomyces cerevisiae), Q01477 (parent)
chain: MNMQDANKEESYSMYPKTSSPPPPTPTNMQIPIYQAPLQMYGYTQAPYLYPTQIPAYSFNMVNQNQPIYHQSGSPHHLPPQNNINGGSTTNNNNINKKKWHSNGITNNNGSSGNQGANSSGSGMSYNKSHTYHHNYSNNHIPMMASPNSGSNAGMKKQTNSSNGNGSSATSPSYSSYNSSSQYDLYKFDVTKLKNLKENSSNLIQLPLFINTTEAEFAAASVQRYELNMKALNLNSESLENSSVEKSSAHHHTKSHSIPKHNEEVKTETHGEEEDAHDKKPHASKDAHELKKKTEVKKEDAKQDRNEKVIQEPQATVLPVVDKKEPEESVEENTSKTSSPSPSPPAAKSWSAIASDAIKSRQASNKTVSGSMVTKTPISGTTAGVSSTNMAAATIGKSSSPLLSKQPQKKDKKYVPPSTKGIEPLGSIALRMCFDPDFISYVLRNKDVENKIPVHSIIPRGIINRANICFMSSVLQVLLYCKPFIDVINVLSTRNTNSRVGTSSCKLLDACLTMYKQFDKETYEKKFLENADDAEKTTESDAKKSSKSKSFQHCATADAVKPDEFYKTLSTIPKFKDLQWGHQEDAEEFLTHLLDQLHEELISAIDGLTDNEIQNMLQSINDEQLKVFFIRNLSRYGKAEFIKNASPRLKELIEKYGVINDDSTEENGWHEVSGSSKRGKKTKTAAKRTVEIVPSPISKLFGGQFRSVLDIPNNKESQSITLDPFQTIQLDISDAGVNDLETAFKKFSEYELLPFKSSSGNDVEAKKQTFIDKLPQVLLIQFKRFSFINNVNKDNAMTNYNAYNGRIEKIRKKIKYGHELIIPEESMSSITLKNNTSGIDDRRYKLTGVIYHHGVSSDGGHYTADVYHSEHNKWYRIDDVNITELEDDDVLKGGEEASDSRTAYILMYQKRN
partner: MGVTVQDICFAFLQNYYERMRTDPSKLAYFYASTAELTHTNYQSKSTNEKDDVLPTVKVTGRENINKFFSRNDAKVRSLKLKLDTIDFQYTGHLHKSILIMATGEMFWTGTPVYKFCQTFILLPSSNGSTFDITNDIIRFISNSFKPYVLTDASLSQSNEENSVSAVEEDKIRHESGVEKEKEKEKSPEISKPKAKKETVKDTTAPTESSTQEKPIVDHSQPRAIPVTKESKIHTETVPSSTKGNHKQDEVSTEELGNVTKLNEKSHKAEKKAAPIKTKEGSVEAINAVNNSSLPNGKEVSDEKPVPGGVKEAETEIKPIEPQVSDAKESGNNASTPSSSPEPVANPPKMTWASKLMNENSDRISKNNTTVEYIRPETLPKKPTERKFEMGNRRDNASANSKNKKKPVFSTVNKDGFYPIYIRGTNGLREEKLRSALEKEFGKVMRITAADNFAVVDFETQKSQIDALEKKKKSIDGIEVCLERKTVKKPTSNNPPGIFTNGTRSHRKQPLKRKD
B2: UBP3-associated protein BRE5 (Saccharomyces cerevisiae), P53741 (parent)
chain: B1 partner
partner: B1 chain

Variants of: B1
Settings: with bre5_yeast BRE5, P53741

Variant	effect of a mutation on the interaction
L208A	with no effect
L208A;F209A;I210A;N211A	decreasing interaction strength
L208A;F209A;I210A;N211A;F217A	disrupting interaction strength
L208A;F209A	decreasing interaction strength
F209A	with no effect

Now from value to variant:

effect of a mutation on the interaction	Variant
decreasing interaction strength	N211A
with no effect	E216A
decreasing interaction strength	N211A;F217A
with no effect	F217A
with no effect	E214A
with no effect	R224A
decreasing interaction strength	I210A;F217A
decreasing interaction strength	I210A
with no effect	T212A

Variants of: B2
Settings: with ubp3_yeast UBP3, Q01477

effect of a mutation on the interaction	Variant
with no effect	E105A
with no effect	K82A
with no effect	K80A
with no effect	Y17A

Variants of: B2
Settings: with ubp3_yeast UBP3, Q01477
Remark: another data set of the same source

effect of a mutation on the interaction	Variant
decreasing interaction strength	Y17A;K82A
